Reference: US20130039916A1 (Merck Sharp & Dohme, published 2013)
Numbering of substitutions follows the chain as printed. Names and notes keep the numbering of the source. Values joined by “and” are separate entries in the source; they are usually repeats but may differ in a detail not shown here. Identical values can stand only once.

T1: "Non-linked" human IL-23 (human p40 coexpressed in 293T cells with human p19:FLAG-tag peptide) (human, UniProt P29460 23-328)
T1 construct: Two disulfide-linked chains, p19 and p40; not shown: FLAG-tag peptide
T1 sequence 1: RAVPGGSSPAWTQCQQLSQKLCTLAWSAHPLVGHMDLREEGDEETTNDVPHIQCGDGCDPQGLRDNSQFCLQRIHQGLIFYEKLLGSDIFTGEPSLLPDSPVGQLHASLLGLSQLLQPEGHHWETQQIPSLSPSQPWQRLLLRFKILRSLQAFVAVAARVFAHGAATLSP
T1 sequence 2: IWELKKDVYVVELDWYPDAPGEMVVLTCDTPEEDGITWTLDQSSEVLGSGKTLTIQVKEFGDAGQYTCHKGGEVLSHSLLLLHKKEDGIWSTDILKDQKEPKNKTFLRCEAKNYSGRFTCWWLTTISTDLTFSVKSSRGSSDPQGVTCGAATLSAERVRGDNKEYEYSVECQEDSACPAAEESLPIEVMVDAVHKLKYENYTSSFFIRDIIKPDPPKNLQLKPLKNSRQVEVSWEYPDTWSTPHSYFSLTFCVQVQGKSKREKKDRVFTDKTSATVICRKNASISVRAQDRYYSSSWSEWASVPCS

T2: non-tagged, non-linked native human IL-23p19/p40 coexpressed in SF9 cells (eBioscience CAT No. 34-8239) (human, UniProt P29460 23-328)
T2 construct: Bought; also called eBioscience human IL-23
T2 sequence 1: T1 sequence 1
T2 sequence 2: T1 sequence 2

T3: "N222Q" human IL-23 (elastikine sequence with Asn222 to Gln in the p40 subunit, expressed in SF9 cells) (human, UniProt P29460 23-328)
T3 chain 1: T1 sequence 2 with N200Q
T3 chain 2: T1 sequence 1

T4: human IL-23 (form not stated) (human, UniProt P29460 23-328)
T4 sequence 1: T1 sequence 1
T4 sequence 2: T1 sequence 2

B1: mouse anti-human IL-23p19 antibody 39G2 (antibody, V domains shown)
VH: QVQLQQPGAELVRPGASVKLSCKASGYSFTSSWMNWVKQRPGQGLEWIGMIHPSDSETRTNQKFKDKATLTVDKSSSTAYMQLSSPTSEDSAVYYCARGMITAPTVYWGQGTLVTVSA
VL: DIVLTQSPASLAVSLGQRATISCRASKSVSTSAYSYFHWYQQKPGQPPKLLIYLASNLESGVPARFSGSGSGTDFTLNIHPVEEEDAATYYCQHSRELPWTFGGGTKLEITP
notes: also called m39G2
B2: mouse anti-human IL-23p19 antibody 6H12 (antibody, V domains shown)
VH: EVHLQQSGPELVKPGASVKMSCKASGYTFNRYLIHWVKQKPGQGLEWIGYINPNNDGTNYNEKFKGKATLTSDKSSSTAYMELSSLTSEDSAVYYCAANWDQAYWGQGTLVTVSA
VL: DIVMTQSPATLSVTPGDRVSLSCRASQSISDYLHWYQQKSHESPRLLIKYTSQSISGIPSRFSGSGSGSDFTLSINSVEPEDVGVYYCQNGHSFPFTFGSGTKLEIKR
notes: also called m6H12
B3: humanized anti-human IL-23p19 antibody 6H12 (antibody, human IgG1, kappa, V domains shown)
VH: QVQLVQSGAEVKKPGASVKVSCKASGYTFNRYLIHWVRQAPGQGLEWMGYINPNNAGTNYNEKFKGRVTMTTDTSTSTAYMELRSLRSDDTAVYYCARNWDQAYWGQGTLVTVSS
VL: DIQMTQSPSSLSASVGDRVTITCRASQSISDYLHWYQQKPGKAPKLLIYYTSQSISGVPSRFSGSGSGTDFTLTISSLQPEDFATYYCQNGHSFPFTFGQGTKVEIKR
notes: Full-length humanized antibody, human IgG1 / kappa; also called hu6H12; hum6H12
B4: mouse anti-human IL-23p19 antibody 35F12 (antibody, V domains shown)
VH: B1 VH with V12M, K19R, S31T, T60L, K63N, K74R, S84N, T105S
VL: B1 VL with E85G, P112R
notes: also called m35F12
B5: mouse anti-human IL-23p19 antibody 13B5 (antibody, V domains shown)
VH: EVQLQQSGPELVKPGASVKMSCKASGYTFTRYLMHWVKQKPGQGLEWIGYINPYNDGTNYNEKFKGKATLTSDKSSSTAYMELSSLTSEDSAVYYCARNWDVGGYWGQGTTLTVSS
VL: B2 VL with T51A
notes: also called m13B5
B6: humanized anti-human IL-23p19 antibody 7G10 (antibody, human IgG1, kappa, V domains shown)
VH: B3 VH with N30T, R31S, Y32N, L33V, I34M, N54Y, A56D, N59K, Q102V
VL: B3 VL with T51A
notes: Full-length humanized antibody, human IgG1 / kappa; also called hu7G10; hum7G10
B7: humanized antibody 17G8 with R98A substitution in the heavy chain of SEQ ID NO: 129 (antibody, V domains shown)
VH: QVQLVQSGAEVKKPGASVKVSCKASGYTFTSYGIKWVRQAPGQGLEWMGEIFPRSGQTIYNEKFKGRVTMTTDTSTSTAYMELRSLRSDDTAVYYCAANWDLDYWGQGTLVTVSS
VL: B3 VL with T51A, F96Y

What follows are binders tested against T1, "Non-linked" human IL-23 (human p40 …) (assay: KinExA, solution equilibrium).
Experimental: (§1) The equilibrium dissociation constant (Kd) for anti human IL-23 antibodies is determined using the KinExA 3000 instrument. Sapidyne Instruments Inc., Boise Id., USA KinExA uses the principle of the Kinetic Exclusion Assay method based on measuring the concentration of uncomplexed antibody in a mixture of antibody, antigen and antibody-antigen complex. The concentration of free antibody is measured by exposing the mixture to a solid-phase immobilized antigen for a very brief period of time. In practice, this is accomplished by flowing the solution phase antigen-antibody mixture past antigen-coated particles trapped in a flow cell. Data generated by the instrument are analyzed using custom software. Equilibrium constants are calculated using a mathematical theory based on the following assumptions:
(§2) 98 micron PMMA particles (Sapidyne, Cat No. 440198) are coated with biotinylated rhIL-23 according to Sapidyne “Protocol for coating PMMA particles with biotinylated ligands having short or nonexistent linker arms”. To make biotinylated rhIL-23, EZ-link TFP PEO-biotin (Pierce, Cat. No. 21219) is used according to manufacturer's recommendations (Pierce bulletin 0874). Experimental procedures are done according to the KinExA 3000 manual.
(§3) KinExA experiments are performed essentially as described at Example 3 of U.S. Patent Application Publication No. 2007/0048315.

| Kd [nM] | Binder |
| --- | --- |
| 0.034 | B1 |
| > 1.2 | B2 |

Each binder was assayed against T5, "Elastikine" human IL-23 (single chain FLAG-tag:GLU-tag:human p40:elasti-linker:human p19, expressed in 293T … (human, UniProt P29460 23-328)) (assay: KinExA, solution equilibrium).
T5 construct: not shown: FLAG-tag peptide; GLU-tag peptide; elasti-linker peptide, derived from R&D Systems commercial IL-23
Experimental: as §1, §2, §3

| Kd | Binder |
| --- | --- |
| 0.028 nM and 0.036 nM | B3 |

What follows are binders tested against T6, "Elastikine" human IL-23 (single chain FLAG-tag:GLU-tag:human p40:elasti-linker:human p19, expressed in 293T … (human, UniProt P29460 23-328)) (assay: KinExA, solution equilibrium).
Experimental: as §1, §2, §3

| Kd | Binder |
| --- | --- |
| 0.019 nM | B1 |
| 0.053 nM | B4 |
| 0.054 nM and 0.048 nM | B2 |
| 0.022 nM | B5 |

The binders below were run against T2, non-tagged, non-linked native human … (assay: KinExA, solution equilibrium).
Experimental: as §1, §2, §3

| Kd [nM] | Binder |
| --- | --- |
| 0.62 | B1 |
| > 0.7 | B4 |
| > 1 | B2 |
| 0.055 | B5 |

Biological target: T3, "N222Q" human IL-23 (elastikine …)
Experiment: BIAcore SPR, antibody immobilised on CM5 chip, IL-23 in solution
Experimental: (§4) BIAcore determinations are performed essentially as described at Example 4 of U.S. Patent Application Publication No. 2007/0048315. Briefly, ligands (anti-IL-23 mAbs) are immobilized on a BIAcore CM5 sensor chip using standard amine-coupling procedure. IL-23 (various forms) is diluted in PBS to produce various concentrations. Kinetic constants for the various interactions are determined using BIAevaluation software 3.1. The Kd is determined using the calculated dissociation and association rate constants. In certain experiments, proteins are used at the following concentrations: anti-IL-23 mAb hu7G10 in PBS at 0.33 mg/mL; anti-IL-23 mAb hu6H12 in PBS at 0.2 mg/mL; bac-wt human IL-23 in PBS at 0.30 mg/mL; eBioscience human IL-23 in PBS at 0.10 mg/mL; N222Q human IL-23 in PBS at 0.33 mg/mL.

| Kd [nM] | Binder |
| --- | --- |
| 0.5 | B3 |

The binders below were run against T2, non-tagged, non-linked native human … in the same assay as above.
Experimental: as §4

| Kd | Binder |
| --- | --- |
| 3.2 nM and 9 nM | B6 |
| 4.1 nM | B3 |

Each binder was assayed against T4, human IL-23 (form not stated) (assay: cell-based or functional assay).

| fold decrease of IC50 in the Ba/F3 proliferation bioassay against the heavy chain of SEQ ID NO: 129 without R98A [fold] | Binder |
| --- | --- |
| > 1000 | B7 |

These binders were tested against T1, "Non-linked" human IL-23 (human p40 …) (assay: cell-based or functional assay).

| IC50 (pM), blocking of Ba/F3 cell proliferation [pM] | Binder |
| --- | --- |
| 67 | B1 |
| 73 | B4 |
| 1500 | B2 |
| 113 | B5 |
| 10000 | B6 |
| 4000 | B3 |

Each binder was assayed against T5, "Elastikine" human IL-23 (single chain …) (assay: cell-based or functional assay).

| IC50 (pM), blocking of Ba/F3 cell proliferation [pM] | Binder |
| --- | --- |
| 29 | B6 |
| 27 | B3 |

These binders were tested against T6, "Elastikine" human IL-23 (single chain …) (assay: cell-based or functional assay).

| IC50 (pM), blocking of Ba/F3 cell proliferation | Binder |
| --- | --- |
| 9 pM and 5 pM | B1 |
| 15 pM and 5 pM | B4 |
| 11 pM and 9 pM | B2 |
| 7 pM and 5 pM | B5 |

Each binder was assayed against T2, non-tagged, non-linked native human … (assay: cell-based or functional assay).

| IC50 (pM), blocking of Ba/F3 cell proliferation | Binder |
| --- | --- |
| 11 pM | B1 |
| 12 pM | B4 |
| 1300 pM and 500 pM | B2 |
| 31 pM | B5 |
| 7800 pM | B6 |
| 3200 pM | B3 |
